In US20130230554A1:

Target: SVGmu, modified Sindbis virus envelope glycoprotein (SEQ ID NO: 11) (Sindbis virus) (UniProt P03316)
Test: confocal imaging; anti-HA-biotin plus Cy5-streptavidin staining of GFP-vpr-labeled lentiviral particles on coverslips

“anti-HA-biotin antibody (Miltenyi Biotec)” gave a fraction of GFP-labeled particles stained for SVGmu greater than 90%.
